These results are taken from patent US20210162061A1 (DINGFU BIOTARGET, published 2021).

For one test, the target named is T1, CD47-muFc (human).
T1 construct: also called CD47-muFc fusion protein; Group 8
Put plainly: BLI (Octet K2), CD47-muFc immobilised on AHC biosensors, 25 C.

The next test has as its target T2, CD47-EGFP (human).
T2 construct: also called cell surface human CD47; cells expressing CD47-EGFP
The experiment in a line: flow cytometry (MFI, anti-hIgG Fc PE) on cells expressing CD47-EGFP, unit taken from the axis Log10(ug/ml).

The target of test [1] is T3, human CD47 (human, UniProt Q08722 19-323).
T3 construct: whole, on cells; also called CD47 on A375 cells; CD47 on human erythrocytes (RBC)
Put plainly: flow cytometry histogram, 20 µg/ml, anti-hIgG Fc PE; tumor cells mixed with 15-fold excess of human RBCs; RBC gate.

The target of test [2] is T3, human CD47. Put plainly: flow cytometry histogram, 20 µg/ml, fresh human RBCs diluted 2500 times.

T1 sequence (chain, as listed by the source limits assumed): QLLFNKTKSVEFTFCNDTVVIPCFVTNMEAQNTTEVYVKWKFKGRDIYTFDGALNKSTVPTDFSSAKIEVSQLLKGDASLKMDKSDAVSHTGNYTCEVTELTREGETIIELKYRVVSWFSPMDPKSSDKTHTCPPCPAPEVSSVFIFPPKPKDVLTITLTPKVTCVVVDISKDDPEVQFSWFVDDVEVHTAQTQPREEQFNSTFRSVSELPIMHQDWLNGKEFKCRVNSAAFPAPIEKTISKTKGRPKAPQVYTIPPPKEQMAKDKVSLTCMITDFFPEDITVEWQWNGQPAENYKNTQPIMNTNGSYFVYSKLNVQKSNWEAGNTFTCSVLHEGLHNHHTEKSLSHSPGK
Procedure for CD47-EGFP: The cells were then analyzed by flow cytometry (Life Technology).
Procedure for CD47-muFc: All experiments were performed at 25° C. under a PBS buffer containing 0.5% BSA and 0.5% Tween 20, pH 7.2. […] After the above steps, the subtracted binding interference data were applied to the calculations of binding constants using the FortéBio analysis software provided with the instrument.

B1: AB6.12 IgG1 (antibody, V domains shown)
VH: QMQLVQSGAEVKKTGSSVKVSCKASGFNIKDYYLHWVRQAPGQALEWMGWIDPDQGDTEYAQKFQDRVTITRDRSMSTAYMELSSLRSEDTAMYYCNAAYGSSSYPMDYWGQGTTVTVSS
VL: NIQMTQSPSAMSASVGDRVTITCKASQDIHRYLSWFQQKPGKVPKHLIYRANRLVSGVPSRFSGSGSGTEFTLTISSLQPEDFATYYCLQYDEFPYTFGGGTKVEIKR
notes: also called anti-CD47 monoclonal antibody AB6.12 IgG1; Group 20
As to B1, in the test with CD47-muFc, the Kd came out at 198 pM, the koff was found to be 0.000129 s⁻¹ and the kon is 651000 M⁻¹ s⁻¹. In the test with CD47-EGFP, this molecule came in with an EC50 of 0.981 µg/mL. Also, in the test with human CD47 [1], the binding result was “binds”.

B2: hu56di-CV1 (Fc fusion)
chain 1: QVQLVESGGGLVQPGGSLRLSCAASGKMSSRRCMAWFRQAPGKERERVAKLLTTSGSTYLADSVKGRFTISRDNSKNTVYLQMNSLRAEDTAVYYCAADSFEDPTCTLVTSSGAFQYWGQGTLVTVSSGAPQVQLVESGGGLVQPGGSLRLSCAASGKMSSRRCMAWFRQAPGKERERVAKLLTTSGSTYLADSVKGRFTISRDNSKNTVYLQMNSLRAEDTAVYYCAADSFEDPTCTLVTSSGAFQYWGQGTLVTVSSEPKSSDKTHTCPPCPAPELLGGPSVFLFPPKPKDTLMISRTPEVTCVVVDVSHEDPEVKFNWYVDGVEVHNAKTKPREEQYNSTYRVVSVLTVLHQDWLNGKEYKCKVSNKALPAPIEKTISKAKGQPREPQVYTLPPCRDELTKNQVSLWCLVKGFYPSDIAVEWESNGQPENNYKTTPPVLDSDGSFFLYSALTVDKSRWQQGNVFSCSVMHEALHNHYTQKSLSLSPGK
chain 2: EEELQIIQPDKSVLVAAGETATLRCTITSLFPVGPIQWFRGAGPGRVLIYNQRQGPFPRVTTVSDTTKRNNMDFSIRIGNITPADAGTYYCIKFRKGSPDDVEFKSGAGTELSVRAKPSGGGGSDKTHTCPPCPAPELLGGPSVFLFPPKPKDTLMISRTPEVTCVVVDVSHEDPEVKFNWYVDGVEVHNAKTKPREEQYNSTYRVVSVLTVLHQDWLNGKEYKCKVSNKALPAPIEKTISKAKGQPREPQVYTLPPSRDELTKNQVSLSCGVKGFYPSDIAVEWESNGQPENNYKTTPPVLDSDGSFKLASKLTVDKSRWQQGNVFSCSVMHEALHNHYTQKSLSLSPGK
notes: also called Group 14
Take B2: the binding result with human CD47 [2] is recorded as “binds”.
